A word on the EC50: it is the concentration at which the effect is half-maximal. As a reminder, the Kd is the free concentration of one partner at which half of the binding sites on the other are occupied at equilibrium, for simple one-to-one binding. Read a low Kd as a tighter complex. A word on the IC50: it is the concentration needed to halve the response being measured. Read a low IC50 as greater potency in that assay.

29 molecules from patent US20260274955A1 (JANUX THERAPEUTICS, published 2026) can be followed below.

No end group written: not given here.

The chains are these.
B1: Peptide-62 (peptide)
peptide: YCAGHAAQYINKCL
notes: alanine scanning peptide of Peptide-39 (W7A)
B2: Peptide-63 (peptide)
peptide: YCAGHAWAYINKCL
notes: alanine scanning peptide of Peptide-39 (Q8A)
B3: Peptide-68 (peptide)
peptide: YCAGHAWQYINKCA
notes: alanine scanning peptide of Peptide-39 (L14A)
B4: Peptide-65 (peptide)
peptide: YCAGHAWQYANKCL
notes: alanine scanning peptide of Peptide-39 (I10A)
B5: Peptide-66 (peptide)
peptide: YCAGHAWQYIAKCL
notes: alanine scanning peptide of Peptide-39 (N11A)

One assay addresses T1, Ab-1.
T1 construct: also called anti-CD28 scFv harbored in Ab-1
The assay is described as follows: BLI (Octet), 200 nM peptide, 100 nM Ab-1. For orientation: Biolayer interferometry detects binding as a change in optical thickness at a sensor tip.
In turn, RDWCPRDLWVHCFA (cysteine pairing not given here; also: biotinylated, site not given here) [Peptide-3] had an Octet signal of 1.22 and a t1/2 of 4.9 min.
The matching figures for TDWCPRDLWVHCFA (cysteine pairing not given here; also: biotinylated, site not given here) [Peptide-16]: 1.34 and 4.2 min.
For EDWCPRDLWVHCFA (cysteine pairing not given here; also: biotinylated, site not given here) [Peptide-7], in that order: 1.02 and 3 min.
KDWCPRDLWVHCFA (cysteine pairing not given here; also: biotinylated, site not given here) [Peptide-12] displayed an Octet signal of 1.13 and a t1/2 of 4 min.
Turning to QDWCPRDLWVHCFA (cysteine pairing not given here; also: biotinylated, site not given here) [Peptide-6], the Octet signal came out at 1.12 and the t1/2 turned out to be 3.6 min.

Another assay concerns the target T1, Ab-1. The assay is described as follows: BLI (Octet), 200 nM peptide, 100 nM Ab-1. The source holds these as a separate data set.
For the molecule VPWCQIISGLECLT (cysteine pairing not given here; also: biotinylated, site not given here) [Peptide-25], the “Octet signal (200 nM peptide)” value amounted to 0.166.
On to LDWCPRHLWALCFN (cysteine pairing not given here; also: biotinylated, site not given here) [Peptide-22], for which the “Octet signal (200 nM peptide)” value amounted to 0.697.
Consider IYWCPIDRWNDCYN (cysteine pairing not given here; also: biotinylated, site not given here) [Peptide-26], for which the “Octet signal (200 nM peptide)” value came to 0.705.
In the case of IDWCPLHLWHECYH (cysteine pairing not given here; also: biotinylated, site not given here) [Peptide-24], the “Octet signal (200 nM peptide)” value was 0.838.

Another assay addresses T1, Ab-1. Description: binding ELISA, peptide captured, Ab-1 titrated. For orientation: An ELISA detects its analyte on a solid surface through an enzyme-linked reagent.
For the molecule RDWCPRDLWVHCFA (cysteine pairing not given here; also: biotinylated, site not given here) [Peptide-3], it took 0.0146 µM to reach a half-maximal effect (EC50).
As to TDWCPRDLWVHCFA (cysteine pairing not given here; also: biotinylated, site not given here) [Peptide-16], the 50% effective concentration (EC50) is 0.024 µM.
As for EDWCPRDLWVHCFA (cysteine pairing not given here; also: biotinylated, site not given here) [Peptide-7], the concentration giving a half-maximal response (EC50) was determined as 0.0328 µM.
Turning to KDWCPRDLWVHCFA (cysteine pairing not given here; also: biotinylated, site not given here) [Peptide-12], the concentration for a half-maximal effect (EC50) worked out at 0.0197 µM.
QDWCPRDLWVHCFA (cysteine pairing not given here; also: biotinylated, site not given here) [Peptide-6] came in with an EC50 of 0.0257 µM.

Another assay has as its target T1, Ab-1. The assay is described as follows: binding ELISA, peptide captured, Ab-1 titrated. The source holds these as a separate data set.
Molecule VPWCQIISGLECLT (cysteine pairing not given here; also: biotinylated, site not given here) [Peptide-25] yielded an EC50 of 0.0549 µM. In other words, the double-digit nanomolar range.
The molecule LDWCPRHLWALCFN (cysteine pairing not given here; also: biotinylated, site not given here) [Peptide-22] had an EC50 of 0.0082 µM.
For IYWCPIDRWNDCYN (cysteine pairing not given here; also: biotinylated, site not given here) [Peptide-26], the EC50 worked out at 0.0076 µM.
IDWCPLHLWHECYH (cysteine pairing not given here; also: biotinylated, site not given here) [Peptide-24] had an EC50 of 0.0133 µM.

The next assay deals with T2, anti-CD28 Fab (SEQ ID NOs: 202, 203).
T2 construct: biotinylated and captured on neutravidin coated plates in the phage ELISA
The assay is described as follows: phage binding ELISA on captured biotinylated Fab.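 Also: clonal phage supernatants added to wells preincubated with CD28 antigen or blocking buffer only, bound phage detected by ELISA with horseradish-conjugated anti-M13 antibody.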
NCSAGAQWPWPICL [Phage-936]: the “Anti-CD28 Fab (SEQ ID NOs: 202, 203) signal” value was found to be 2.15.
In the case of LCAAGAHYPWPQCL [Phage-937], the “Anti-CD28 Fab (SEQ ID NOs: 202, 203) signal” value came to 2.15.
Turning to SCAAGAMYSWPTCL [Phage-935], the “Anti-CD28 Fab (SEQ ID NOs: 202, 203) signal” value was determined as 2.16.
Regarding TCAAGAHWPWPTCF [Phage-938], the “Anti-CD28 Fab (SEQ ID NOs: 202, 203) signal” value was 2.15.
As to LCNAGATYSWPTCL [Phage-940], the “Anti-CD28 Fab (SEQ ID NOs: 202, 203) signal” value came out at 2.14.

For a further assay, the target named is T3, anti-CD28 Fab (SEQ ID NOs: 202, 203).
T3 construct: biotinylated when captured in the phage ELISAs
Description: binding ELISA, peptide captured, anti-CD28 Fab titrated.
YCAGHSPINIGKCL (cysteine pairing not given here; also: biotinylated, site not given here) [Peptide-36] returned an EC50 of 0.337 µM.
On the same count and under the same terms, with ACDTYFAGMINECF (cysteine pairing not given here; also: biotinylated, site not given here) [Peptide-31] the figure was 0.097 µM; with SCAAGASYAWPYCL (cysteine pairing not given here; also: biotinylated, site not given here), 0.054 µM; with YCAGHAWQYINKCL (cysteine pairing not given here; also: biotinylated, site not given here), 0.049 µM.

Another assay has the same target. The description is as above. This is another data set of the same source.
With SCAAGASYAWPYCL (cysteine pairing not given here; also: biotinylated, site not given here), the concentration for a half-maximal effect (EC50) was found to be 0.0189 µM.

The target of the next assay is T1, Ab-1. Description: BLI (Octet), peptide on sensor, Ab-1 titrated, 1:1 model.
RDWCPRDLWVHCFA (cysteine pairing not given here; also: biotinylated, site not given here) [Peptide-3]: the Kd worked out at 0.0203 µM and the t1/2 was found to be 6.2 min.
Regarding TDWCPRDLWVHCFA (cysteine pairing not given here; also: biotinylated, site not given here) [Peptide-16], the equilibrium dissociation constant (Kd) is 0.0255 µM and the t1/2 was determined as 4.7 min.
As to EDWCPRDLWVHCFA (cysteine pairing not given here; also: biotinylated, site not given here) [Peptide-7], the dissociation constant (Kd) turned out to be 0.0232 µM and the t1/2 was determined as 3.1 min.
KDWCPRDLWVHCFA (cysteine pairing not given here; also: biotinylated, site not given here) [Peptide-12]: the Kd came out at 0.0261 µM and the t1/2 worked out at 4.5 min.
Molecule QDWCPRDLWVHCFA (cysteine pairing not given here; also: biotinylated, site not given here) [Peptide-6] returned a Kd of 0.0246 µM and a t1/2 of 4.2 min.

The next assay addresses T2, anti-CD28 Fab (SEQ ID NOs: 202, 203). The assay is described as follows: phage binding ELISA on captured Fab, competitor CD28 antigen.
For NCSAGAQWPWPICL [Phage-936], the “Anti-CD28 Fab signal in the presence of CD28” value came to 0.08.
Still for that read-out and setting: under LCAAGAHYPWPQCL [Phage-937] stands 0.07; under SCAAGAMYSWPTCL [Phage-935], 0.08.
Same read-out and setting: under TCAAGAHWPWPTCF [Phage-938] stands 0.07; under LCNAGATYSWPTCL [Phage-940], 0.06.

The target of the next assay is T1, Ab-1. Description: competition ELISA, peptide titrated vs 1 nM Ab-1 binding plate-bound CD28.
As for RDWCPRDLWVHCFA (cysteine pairing not given here; also: biotinylated, site not given here) [Peptide-3], the IC50 came to 0.17 µM. This lies in the sub-micromolar range.
TDWCPRDLWVHCFA (cysteine pairing not given here; also: biotinylated, site not given here) [Peptide-16] registered an IC50 of 0.59 µM.
As to EDWCPRDLWVHCFA (cysteine pairing not given here; also: biotinylated, site not given here) [Peptide-7], the IC50 was 0.3 µM.
With KDWCPRDLWVHCFA (cysteine pairing not given here; also: biotinylated, site not given here) [Peptide-12], the IC50 is 0.19 µM.
With QDWCPRDLWVHCFA (cysteine pairing not given here; also: biotinylated, site not given here) [Peptide-6], the IC50 came out at 0.33 µM.

Another assay has as its target T1, Ab-1. The assay is described as above. The source holds these as a separate data set.
VPWCQIISGLECLT (cysteine pairing not given here; also: biotinylated, site not given here) [Peptide-25] returned an IC50 of more than 100 µM.
Same read-out and setting: under LDWCPRHLWALCFN (cysteine pairing not given here; also: biotinylated, site not given here) [Peptide-22] stands 0.47 µM; under IYWCPIDRWNDCYN (cysteine pairing not given here; also: biotinylated, site not given here) [Peptide-26], 0.41 µM; under IDWCPLHLWHECYH (cysteine pairing not given here; also: biotinylated, site not given here) [Peptide-24], 1.52 µM.

For a further assay, the target named is anti-CD28 Fab. The assay is described as follows: competition ELISA, alanine scan of Peptide-39, Fab binding plate-bound CD28.
YCAGHAWQYINKCL (cysteine pairing not given here; also: biotinylated, site not given here, synthetic peptide) came in with an IC50 of 12600 µM.
Consider B1, for which the concentration for half-maximal inhibition (IC50) came out at 3160 µM. This IC50 is about 4-fold lower than that of the molecule before.
For the molecule B2, the IC50 stood at 12300 µM.
Take B3: the 50% inhibitory concentration (IC50) worked out at 98600 µM.
Same read-out and setting: under B4 stands 102000 µM; under B5, 5490 µM.

The target in a further assay is anti-CD28 Fab. The assay is described as follows: competition ELISA, alanine scan of Peptide-44, Fab binding plate-bound CD28.
Regarding SCAAGASYAWPYCL (cysteine pairing not given here; also: biotinylated, site not given here, synthetic peptide), the concentration for half-maximal inhibition (IC50) was found to be 7890 µM. That is a millimolar value.
In turn, ACAAGASYAWPYCL [Peptide-51] came in with an IC50 of 21000 µM. Against the preceding molecule, the IC50 is about 2.7-fold higher.
As to SCAAGASYAWPYCA [Peptide-58], the 50% inhibitory concentration (IC50) came out at 76400 µM.
Turning to SCAAGAAYAWPYCL [Peptide-53], the IC50 was 7420 µM.
Same read-out and setting: under SCAAGASYAWPACL [Peptide-57] stands 13000 µM.
